# From patent US20260242735A1 (UNIVERSIT T BASEL, published 2026)
# B1: Refmab #6 (antibody, V domains shown)
# VH: QVQLQQPGAEVVKPGASVKMSCKASGYTFTSYYIHWIKQTPGQGLEWVGVIYPGNDDISYNQKFQGKATLTADKSSTTAYMQLSSLTSEDSAVYYCAREVRLRYFDVWGQGTTVTVSS
# VL: EIVLTQSPGSLAVSPGERVTMSCKSSQSVFFSSSQKNYLAWYQQIPGQSPRLLIYWASTRESGVPDRFTGSGSGTDFTLTISSVQPEDLAIYYCHQYLSSRTFGQGTKLEIK
# notes: Full-length format is human IgG1 Fc silent (PG-LALA); also made as Fab; The alanine scan used IgG or Fab
# B2: Refmab #6 (antibody, V domains shown)
# VH: B1 VH
# VL: B1 VL
# notes: The alanine scan used IgG or Fab
# B3: Refmab #5 (antibody, V domains shown)
# VH: QVQLVQSGAEVKKPGASVKVSCKASGYTFTNYDINWVRQAPGQGLEWIGWIYPGDGSTKYNEKFKAKATLTADTSTSTAYMELRSLRSDDTAVYYCASGYEDAMDYWGQGTTVTVSS
# VL: DIQMTQSPSSLSASVGDRVTINCKASQDINSYLSWFQQKPGKAPKTLIYRANRLVDGVPSRFSGSGSGQDYTLTISSLQPEDFATYYCLQYDEFPLTFGGGTKVEIK
# notes: as for B1
# B4: Refmab #5 (antibody, V domains shown)
# VH: B3 VH
# VL: B3 VL
# notes: as for B2
# Columns and labels:
# Assay in all cases: alanine scan, flow cytometry, HEK293-T;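 also: antibody binding to each alanine-substituted CD33 mutant expressed transiently in HEK293-T, read as fluorescence minus background, mean of duplicates, relative to wild-type CD33 set as 100%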
# [1] = target: human CD33 D51A (human, UniProt P20138 18-364)
# human CD33 D51A, sequence (P20138 18-364 D51A limits assumed): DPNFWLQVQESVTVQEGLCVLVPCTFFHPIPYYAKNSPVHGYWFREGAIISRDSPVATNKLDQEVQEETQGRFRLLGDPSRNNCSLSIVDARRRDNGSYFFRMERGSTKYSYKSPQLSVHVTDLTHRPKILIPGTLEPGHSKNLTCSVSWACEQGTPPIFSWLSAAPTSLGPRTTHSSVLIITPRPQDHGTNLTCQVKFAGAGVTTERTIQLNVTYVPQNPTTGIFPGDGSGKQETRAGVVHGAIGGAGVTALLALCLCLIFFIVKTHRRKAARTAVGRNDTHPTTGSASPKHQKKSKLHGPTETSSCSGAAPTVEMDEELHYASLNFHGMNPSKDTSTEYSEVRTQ
# [2] = target: human CD33 K52A (human, UniProt P20138 18-364)
# human CD33 K52A, sequence (P20138 18-364 K52A limits assumed): as the sequence (P20138 18-364 D51A limits assumed) above, with A34D, K35A counted along it
# [3] = target: human CD33 N53A (human, UniProt P20138 18-364)
# human CD33 N53A, sequence (P20138 18-364 N53A limits assumed): as the sequence (P20138 18-364 D51A limits assumed) above, with A34D, N36A counted along it
# [4] = target: human CD33 S54A (human, UniProt P20138 18-364)
# human CD33 S54A, sequence (P20138 18-364 S54A limits assumed): as the sequence (P20138 18-364 D51A limits assumed) above, with A34D, S37A counted along it
# [5] = target: human CD33 R62A (human, UniProt P20138 18-364)
# human CD33 R62A, sequence (P20138 18-364 R62A limits assumed): as the sequence (P20138 18-364 D51A limits assumed) above, with A34D, R45A counted along it
# [6] = target: human CD33 A65S (human, UniProt P20138 18-364)
# human CD33 A65S, sequence (P20138 18-364 A65S limits assumed): as the sequence (P20138 18-364 D51A limits assumed) above, with A34D, A48S counted along it
# [7] = target: human CD33 V73A (human, UniProt P20138 18-364)
# human CD33 V73A, sequence (P20138 18-364 V73A limits assumed): as the sequence (P20138 18-364 D51A limits assumed) above, with A34D, V56A counted along it
# [8] = target: human CD33 T75A (human, UniProt P20138 18-364)
# human CD33 T75A, sequence (P20138 18-364 T75A limits assumed): as the sequence (P20138 18-364 D51A limits assumed) above, with A34D, T58A counted along it
# [9] = target: human CD33 K77A (human, UniProt P20138 18-364)
# human CD33 K77A, sequence (P20138 18-364 K77A limits assumed): as the sequence (P20138 18-364 D51A limits assumed) above, with A34D, K60A counted along it
# [10] = target: human CD33 V82A (human, UniProt P20138 18-364)
# human CD33 V82A, sequence (P20138 18-364 V82A limits assumed): as the sequence (P20138 18-364 D51A limits assumed) above, with A34D, V65A counted along it
# [11] = target: human CD33 F90A (human, UniProt P20138 18-364)
# human CD33 F90A, sequence (P20138 18-364 F90A limits assumed): as the sequence (P20138 18-364 D51A limits assumed) above, with A34D, F73A counted along it
# [12] = target: human CD33 R91A (human, UniProt P20138 18-364)
# human CD33 R91A, sequence (P20138 18-364 R91A limits assumed): as the sequence (P20138 18-364 D51A limits assumed) above, with A34D, R74A counted along it
# [13] = target: human CD33 C101A (human, UniProt P20138 18-364)
# human CD33 C101A, sequence (P20138 18-364 C101A limits assumed): as the sequence (P20138 18-364 D51A limits assumed) above, with A34D, C84A counted along it
# [14] = target: human CD33 S102A (human, UniProt P20138 18-364)
# human CD33 S102A, sequence (P20138 18-364 S102A limits assumed): as the sequence (P20138 18-364 D51A limits assumed) above, with A34D, S85A counted along it
# [15] = target: human CD33 R110A (human, UniProt P20138 18-364)
# human CD33 R110A, sequence (P20138 18-364 R110A limits assumed): as the sequence (P20138 18-364 D51A limits assumed) above, with A34D, R93A counted along it
# [16] = target: human CD33 S115A (human, UniProt P20138 18-364)
# human CD33 S115A, sequence (P20138 18-364 S115A limits assumed): as the sequence (P20138 18-364 D51A limits assumed) above, with A34D, S98A counted along it
# [17] = target: human CD33 Y116A (human, UniProt P20138 18-364)
# human CD33 Y116A, sequence (P20138 18-364 Y116A limits assumed): as the sequence (P20138 18-364 D51A limits assumed) above, with A34D, Y99A counted along it
# [18] = target: human CD33 P48A (human, UniProt P20138 18-364)
# human CD33 P48A, sequence (P20138 18-364 P48A limits assumed): as the sequence (P20138 18-364 D51A limits assumed) above, with P31A, A34D counted along it
# [19] = target: T1, human CD33 Y127A (human, UniProt P20138 18-364)
# T1 construct: alanine scan clone, transfected HEK293-T
# T1 sequence (P20138 18-364 Y127A limits assumed): as the sequence (P20138 18-364 D51A limits assumed) above, with A34D, Y110A counted along it
# [20] = target: T2, human CD33 Q133A (human, UniProt P20138 18-364)
# T2 construct: alanine scan clone, transfected HEK293-T
# T2 sequence (P20138 18-364 Q133A limits assumed): as the sequence (P20138 18-364 D51A limits assumed) above, with A34D, Q116A counted along it
# [21] = target: T3, human CD33 H137A (human, UniProt P20138 18-364)
# T3 construct: alanine scan clone, transfected HEK293-T
# T3 sequence (P20138 18-364 H137A limits assumed): as the sequence (P20138 18-364 D51A limits assumed) above, with A34D, H120A counted along it
# [22] = target: T4, human CD33 V138A (human, UniProt P20138 18-364)
# T4 construct: alanine scan clone, transfected HEK293-T
# T4 sequence (P20138 18-364 V138A limits assumed): as the sequence (P20138 18-364 D51A limits assumed) above, with A34D, V121A counted along it
# [23] = target: T5, human CD33 D140A (human, UniProt P20138 18-364)
# T5 construct: alanine scan clone, transfected HEK293-T
# T5 sequence (P20138 18-364 D140A limits assumed): as the sequence (P20138 18-364 D51A limits assumed) above, with A34D, D123A counted along it
# [24] = target: T6, human CD33 H143A (human, UniProt P20138 18-364)
# T6 construct: alanine scan clone, transfected HEK293-T
# T6 sequence (P20138 18-364 H143A limits assumed): as the sequence (P20138 18-364 D51A limits assumed) above, with A34D, H126A counted along it
# [25] = target: T7, human CD33 P155A (human, UniProt P20138 18-364)
# T7 construct: alanine scan clone, transfected HEK293-T
# T7 sequence (P20138 18-364 P155A limits assumed): as the sequence (P20138 18-364 D51A limits assumed) above, with A34D, P138A counted along it
# [26] = target: T8, human CD33 K159A (human, UniProt P20138 18-364)
# T8 construct: alanine scan clone, transfected HEK293-T
# T8 sequence (P20138 18-364 K159A limits assumed): as the sequence (P20138 18-364 D51A limits assumed) above, with A34D, K142A counted along it
# [27] = target: T9, human CD33 N160A (human, UniProt P20138 18-364)
# T9 construct: alanine scan clone, transfected HEK293-T
# T9 sequence (P20138 18-364 N160A limits assumed): as the sequence (P20138 18-364 D51A limits assumed) above, with A34D, N143A counted along it
# [28] = target: T10, human CD33 T162A (human, UniProt P20138 18-364)
# T10 construct: alanine scan clone, transfected HEK293-T
# T10 sequence (P20138 18-364 T162A limits assumed): as the sequence (P20138 18-364 D51A limits assumed) above, with A34D, T145A counted along it
# [29] = target: T11, human CD33 V165A (human, UniProt P20138 18-364)
# T11 construct: alanine scan clone, transfected HEK293-T
# T11 sequence (P20138 18-364 V165A limits assumed): as the sequence (P20138 18-364 D51A limits assumed) above, with A34D, V148A counted along it
# [30] = target: T12, human CD33 E121A (human, UniProt P20138 18-364)
# T12 construct: alanine scan clone, transfected HEK293-T
# T12 sequence (P20138 18-364 E121A limits assumed): as the sequence (P20138 18-364 D51A limits assumed) above, with A34D, E104A counted along it
# [31] = target: T13, human CD33 W167A (human, UniProt P20138 18-364)
# T13 construct: alanine scan clone, transfected HEK293-T
# T13 sequence (P20138 18-364 W167A limits assumed): as the sequence (P20138 18-364 D51A limits assumed) above, with A34D, W150A counted along it
# [32] = target: T14, human CD33 P175A (human, UniProt P20138 18-364)
# T14 construct: alanine scan clone, transfected HEK293-T
# T14 sequence (P20138 18-364 P175A limits assumed): as the sequence (P20138 18-364 D51A limits assumed) above, with A34D, P158A counted along it
# [33] = target: T15, human CD33 T185A (human, UniProt P20138 18-364)
# T15 construct: alanine scan clone, transfected HEK293-T
# T15 sequence (P20138 18-364 T185A limits assumed): as the sequence (P20138 18-364 D51A limits assumed) above, with A34D, T168A counted along it
# [34] = target: T16, human CD33 P189A (human, UniProt P20138 18-364)
# T16 construct: alanine scan clone, transfected HEK293-T
# T16 sequence (P20138 18-364 P189A limits assumed): as the sequence (P20138 18-364 D51A limits assumed) above, with A34D, P172A counted along it
# [35] = target: T17, human CD33 T192A (human, UniProt P20138 18-364)
# T17 construct: alanine scan clone, transfected HEK293-T
# T17 sequence (P20138 18-364 T192A limits assumed): as the sequence (P20138 18-364 D51A limits assumed) above, with A34D, T175A counted along it
# [36] = target: T18, human CD33 S124A (human, UniProt P20138 18-364)
# T18 construct: alanine scan clone, transfected HEK293-T
# T18 sequence (P20138 18-364 S124A limits assumed): as the sequence (P20138 18-364 D51A limits assumed) above, with A34D, S107A counted along it
Binder,Mean % WT Binding [1] [% WT binding],Mean % WT Binding [2] [% WT binding],Mean % WT Binding [3] [% WT binding],Mean % WT Binding [4] [% WT binding],Mean % WT Binding [5] [% WT binding],Mean % WT Binding [6] [% WT binding],Mean % WT Binding [7] [% WT binding],Mean % WT Binding [8] [% WT binding],Mean % WT Binding [9] [% WT binding],Mean % WT Binding [10] [% WT binding],Mean % WT Binding [11] [% WT binding],Mean % WT Binding [12] [% WT binding],Mean % WT Binding [13] [% WT binding],Mean % WT Binding [14] [% WT binding],Mean % WT Binding [15] [% WT binding],Mean % WT Binding [16] [% WT binding],Mean % WT Binding [17] [% WT binding],Mean % WT Binding [18] [% WT binding],Mean % WT Binding [19] [% WT binding],Mean % WT Binding [20] [% WT binding],further results
B1,61.7,77,96.8,83.6,106,92.3,77.7,102,79.9,110,71.1,91.4,6.2,85.1,98.4,75.8,5,104,,,
B2,,,,,,,,,,,,,,,,,,,42,88.3,Mean % WT Binding [21]: 117 % WT binding; Mean % WT Binding [22]: 65.4 % WT binding; Mean % WT Binding [23]: 104 % WT binding; Mean % WT Binding [24]: 97.5 % WT binding; Mean % WT Binding [25]: 104 % WT binding; Mean % WT Binding [26]: 123 % WT binding; Mean % WT Binding [27]: 106 % WT binding; Mean % WT Binding [28]: 87.2 % WT binding; Mean % WT Binding [29]: 101 % WT binding; Mean % WT Binding [30]: 90.8 % WT binding; Mean % WT Binding [31]: 90.5 % WT binding; Mean % WT Binding [32]: 98.6 % WT binding; Mean % WT Binding [33]: 117 % WT binding; Mean % WT Binding [34]: 103 % WT binding; Mean % WT Binding [35]: 99 % WT binding; Mean % WT Binding [36]: 98.2 % WT binding
B3,105,11.9,97.6,146,123,175,112,120,124,122,123,101,23,154,125,74.6,16,92.8,,,
B4,,,,,,,,,,,,,,,,,,,199,112,Mean % WT Binding [21]: 120 % WT binding; Mean % WT Binding [22]: 101 % WT binding; Mean % WT Binding [23]: 118 % WT binding; Mean % WT Binding [24]: 128 % WT binding; Mean % WT Binding [25]: 140 % WT binding; Mean % WT Binding [26]: 148 % WT binding; Mean % WT Binding [27]: 110 % WT binding; Mean % WT Binding [28]: 92.4 % WT binding; Mean % WT Binding [29]: 174 % WT binding; Mean % WT Binding [30]: 105 % WT binding; Mean % WT Binding [31]: 95.5 % WT binding; Mean % WT Binding [32]: 130 % WT binding; Mean % WT Binding [33]: 94 % WT binding; Mean % WT Binding [34]: 115 % WT binding; Mean % WT Binding [35]: 109 % WT binding; Mean % WT Binding [36]: 79.4 % WT binding
